In patent US7786071B2 (priority 2003, dated 2010):
Like-named read-outs stand apart in the source and are kept apart here.

Legend:
[1] = read-out: Kd for the first (higher affinity) calcium; cited from earlier work
[2] = assay type: biochemical; settings: pH 8; for Km: read-out: KM(Paraoxon)
[3] = assay type: biochemical
[4] = assay type: biochemical; settings: read-out: Dihydrocoumarin KM
[5] = assay type: biochemical; settings: read-out: 2-Naphthyl acetate KM
[6] = read-out: KM(PheAc); cited from earlier work
[7] = read-out: KM(Paraoxon); cited from earlier work
[8] = read-out: KM for L-HcyT hydrolysis; cited from earlier work
[9] = assay type: biochemical; settings: read-out: KM for L-Hcy hydrolysis
[10] = assay type: biochemical; remark: listed apart in the source
[11] = assay type: biochemical; settings: read-out: DEPCyC hydrolysis KM
[12] = read-out: Phenylacetate hydrolysis KM

B1: RabPON1: wild-type rabbit PON1, GenBank Accession No. AF220943 (protein, listed as Rattus norvegicus)
chain: MAKLLGLTLVGLVLALYKNHRSSYQTRLNAFREVTPVDLPNCTLVKGIEAGAEDLEILPNGLTFFSTGLKYPGIKSFDPSKPGKILLMDLNEKEPAVSELAIMGNTLDMSSFNPHGISTFIDEDNTVYLLVVSHPDSSSTVEVFKFQEEERSLLHLKTITHELLPSINDIAAVGPESFYATNDHYFADPYLRSWEMYLGLSWSNVVYYSPDKVRVVADGFDFANGIGISLDGKYVYIAELLAHKIHVYEKHANWTLTPLKVLSFDTLVDNISVDPVTGDLWVGCHPNGMRIFFYDSENPPGSEVLRIQSILSEDPKVTVVYAENGTVLQGTTVAAVYKGKLLIGTVFHRALCCDL
Kd [1]: 50 nM

B2: G1A5: first-round directly evolved PON1 variant, thioredoxin-fused; SEQ ID NO: 25 (DNA), 57 (protein) (protein)
chain: MAKLTALTLLGLGLALFDGQKSSFQTRFNVHREVTPVELPNCNLVKGIDNGSEDLEILPNGLAFISSGLKYPGIMSFDPDKSGKILLMDLNEEDPVVLELGITGNTLDISSFNPHGISTFIDEDNTVYLLVVNHPDSSSTVEVFKFQEKEKSLLHLKTIRHKLLPSVNDIVAVGPEHFYATNDHYFIDPYLKSWEMHLGLAWSFVTYYSPNDVRVVAEGFDFANGINISPDGKYVYIAELLAHKIHVYEKHANWTLTPLKSLDFNTLVDNISVDPVTGDLWVGCHPNGMRIFYYDPENPPGSEVLRIQNILSKEPKVTVVYAENGTVLQGTTVASVYKGKLLIGTVFHKALYCEL
modifications: thioredoxin-fused; In vitro evolved PON variant G1A5
kcat(Paraoxon) [2]: 1.16 s⁻¹ | Km [2]: 85 µM | kcat (PheAc) ([3]; pH 8): 833 s⁻¹ | Km ([3]; pH 8, read-out: KM(PheAc)): 390 µM | Km [4]: 120 µM | Km [5]: 80 µM

B3: hPON1: wild-type human PON1; kinetic values for enzyme purified from sera; SEQ ID NO: 24, 36 (protein, listed as Homo sapiens)
chain: MAKLIALTLLGMGLALFRNHQSSYQTRLNALREVQPVELPNCNLVKGIETGSEDLEILPNGLAFISSGLKYPGIKSFNPNSPGKILLMDLNEEDPTVLELGITGSKFDVSSFNPHGISTFTDEDNAMYLLVVNHPDAKSTVELFKFQEEEKSLLHLKTIRHKLLPNLNDIVAVGPEHFYGTNDHYFLDPYLQSWEMYLGLAWSYVVYYSPSEVRVVAEGFDFANGINISPDGKYVYIAELLAHKIHVYEKHANWTLTPLKSLDFNTLVDNISVDPETGDLWVGCHPNGMKIFFYDSENPPASEVLRIQNILTEEPKVTQVYAENGTVLQGSTVASVYKGKLLIGTVFHKALYCEL
Kd [1]: 360 nM | Km [6]: 420 µM | Km [7]: 540 µM | Km [8]: 23000 µM

B4: G3H8: third-round rPON1 variant, unmodified 355 aa protein without tags; SEQ ID NO: 29 (DNA), 61 (protein) (protein)
chain: MAKLTAPTLLGLGLALFDRQKSSFQTRFNVHREVTPVELPNCNLVKGIDNGSEDLEILPNGLAFISSGLKYPGIMSFDPDKSGKILLMDLNEEDPVVLELGITGSTFDLSSFNPHGISTFTDEDNTVYLLVVNHPDSSSTVEVFKFQEKERSLLHLKTIRHKLLPSVNDIVAVGPESFYATNDHYFADPYLKSWEMHLGLAWSFVTYYSPNDVRVVAEGFDFANGINISPDGKYVYIAELLAHKIHVYEKHANWTLTPLKSLDFNTLVDNISVDPVTGDLWVGCHPNGMRIFYYDPENPPGSEVLRIQDILSKEPKVTVVYAENGTVLQGSTVAAVYKGKLLIGTVFHKALYCDL
modifications: In vitro evolved PON variant G3H8
kcat(Paraoxon) [2]: 1.2 s⁻¹ | Km [2]: 88 µM | Km [9]: ~19000 µM | kcat (PheAc) ([3]; pH 8): 1018 s⁻¹ | Km ([3]; pH 8, read-out: KM(PheAc)): 320 µM | Km [4]: 76 µM | Km [5]: 110 µM

B5: 7HY: G3C9-derived PON1 variant, mutations F292V, Y293D, I109M; SEQ ID NO: 74, 75 (protein)
chain: MAKLTALTLLGLGLALFDGQKSSFQTRFNVHREVTPVELPNCNLVKGVDNGSEDLEILPNGLAFISSGLKYPGIMSFDPDKSGKILLMDLNEEDPVVLELGITGNTLDMSSFNPHGISTFTDEDNTVYLLVVNHPDSSSTVEVFKFQEEEKSLLHLKTIRHKLLPSVNDIVAVGPEHFYATNDHYFADPYLKSWEMHLGLAWSFVTYYSPNDVRVVAEGFDFANGINISPDGKYVYIAELLAHKIHVYEKHANWTLTPLKSLDFDTLVDNISVDPVTGDLWVGCHPNGMRIVDYDPKNPPGSEVLRIQDILSEEPKVTVVYAENGTVLQGSTVAAVYKGKLLIGTVFHKALYCEL
modifications: In vitro evolved PON variant 7HY
shift in substrate selectivity [10]: up to 4,600 fold

B6: G3C9.49: G3C9 variant with mutations G19R, S193P, N287D and V346A; SEQ ID NO: 64, 65 (protein)
chain: MAKLTALTLLGLGLALFDRQKSSFQTRFNVHREVTPVELPNCNLVKGVDNGSEDLEILPNGLAFISSGLKYPGIMSFDPDKSGKILLMDLNEEDPVVLELGITGNTLDISSFNPHGISTFTDEDNTVYLLVVNHPDSSSTVEVFKFQEEEKSLLHLKTIRHKLLPSVNDIVAVGPEHFYATNDHYFADPYLKPWEMHLGLAWSFVTYYSPNDVRVVAEGFDFANGINISPDGKYVYIAELLAHKIHVYEKHANWTLTPLKSLDFDTLVDNISVDPVTGDLWVGCHPDGMRIFYYDPKNPPGSEVLRIQDILSEEPKVTVVYAENGTVLQGSTVAAVYKGKLLIGTAFHKALYCEL
modifications: In vitro evolved PON variant G3C9.49
Km [3, 12]: 300 µM | Km [11]: 80 µM

B7: G3C9: third-round highly soluble rPON1 variant without tags, wt-like activity; SEQ ID NO: 55 (DNA), 56 (protein) (protein)
chain: MAKLTALTLLGLGLALFDGQKSSFQTRFNVHREVTPVELPNCNLVKGVDNGSEDLEILPNGLAFISSGLKYPGIMSFDPDKSGKILLMDLNEEDPVVLELGITGNTLDISSFNPHGISTFTDEDNTVYLLVVNHPDSSSTVEVFKFQEEEKSLLHLKTIRHKLLPSVNDIVAVGPEHFYATNDHYFADPYLKSWEMHLGLAWSFVTYYSPNDVRVVAEGFDFANGINISPDGKYVYIAELLAHKIHVYEKHANWTLTPLKSLDFDTLVDNISVDPVTGDLWVGCHPNGMRIFYYDPKNPPGSEVLRIQDILSEEPKVTVVYAENGTVLQGSTVAAVYKGKLLIGTVFHKALYCEL
modifications: In vitro evolved PON variant G3C9
kcat(Paraoxon) [2]: 1.1 s⁻¹ | Km [2]: 94 µM | kcat (PheAc) ([3]; pH 8): 789 s⁻¹ | Km ([3]; pH 8, read-out: KM(PheAc)): 330 µM | Km [3, 12]: 330 µM | Km [11]: 70 µM
